Test results from article PMC9482650, “Quantitative fragmentomics allow affinity mapping of interactomes” (Nature Communications, 2022).

T1: CARD11, Q9BXL7
T1 sequence (Q9BXL7 662-765, limits assumed, looked up): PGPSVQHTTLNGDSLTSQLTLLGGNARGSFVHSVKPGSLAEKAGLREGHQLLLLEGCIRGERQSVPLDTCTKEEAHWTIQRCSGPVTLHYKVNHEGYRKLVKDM

T2: HTRA3, P83110
T2 sequence (P83110 354-453, limits assumed, looked up): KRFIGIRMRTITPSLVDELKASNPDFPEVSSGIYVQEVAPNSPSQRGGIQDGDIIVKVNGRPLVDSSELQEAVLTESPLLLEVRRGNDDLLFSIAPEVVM

T3: HTRA4, P83105
T3 sequence (P83105 378-476, limits assumed, looked up): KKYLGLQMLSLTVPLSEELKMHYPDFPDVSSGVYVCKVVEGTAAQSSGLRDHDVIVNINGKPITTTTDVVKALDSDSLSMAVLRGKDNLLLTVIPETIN

T4: LNX2_3, Q8N448
T4 sequence (Q8N448 463-564, limits assumed, looked up): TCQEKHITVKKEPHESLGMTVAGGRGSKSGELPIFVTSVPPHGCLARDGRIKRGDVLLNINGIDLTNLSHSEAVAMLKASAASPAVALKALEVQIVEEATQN

T5: MPP7, Q5T2T1
T5 sequence (Q5T2T1 134-230, limits assumed, looked up): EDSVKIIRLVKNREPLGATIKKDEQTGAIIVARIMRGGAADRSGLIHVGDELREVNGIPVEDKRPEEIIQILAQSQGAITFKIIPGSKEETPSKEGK

T6: PARD3B_1, Q8TEW8
T6 sequence (Q8TEW8 196-299, limits assumed, looked up): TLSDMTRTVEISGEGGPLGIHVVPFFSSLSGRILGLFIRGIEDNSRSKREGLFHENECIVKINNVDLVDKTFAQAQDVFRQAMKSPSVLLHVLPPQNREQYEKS

T7: PCLO, Q9Y6V0
T7 sequence (Q9Y6V0 4491-4600, limits assumed, looked up): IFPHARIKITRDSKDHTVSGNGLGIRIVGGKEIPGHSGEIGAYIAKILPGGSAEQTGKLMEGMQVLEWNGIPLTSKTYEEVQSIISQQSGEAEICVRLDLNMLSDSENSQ

T8: SNTA1, Q13424
T8 sequence (Q13424 82-180, limits assumed, looked up): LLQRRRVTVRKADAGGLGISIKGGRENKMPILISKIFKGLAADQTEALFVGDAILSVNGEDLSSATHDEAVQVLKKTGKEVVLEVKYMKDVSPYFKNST

T9: SNTG1, Q9NSN8
T9 sequence (Q9NSN8 52-150, limits assumed, looked up): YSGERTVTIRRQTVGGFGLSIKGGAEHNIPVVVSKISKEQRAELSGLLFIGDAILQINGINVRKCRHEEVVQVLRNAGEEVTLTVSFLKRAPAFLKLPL

T10: SNTG2, Q9NY99
T10 sequence (Q9NY99 68-166, limits assumed, looked up): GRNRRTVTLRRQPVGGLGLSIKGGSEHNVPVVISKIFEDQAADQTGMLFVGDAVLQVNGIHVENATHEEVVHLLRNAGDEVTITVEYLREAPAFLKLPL

T11: SYNJ2BP, P57105
T11 sequence (P57105 8-110, limits assumed, looked up): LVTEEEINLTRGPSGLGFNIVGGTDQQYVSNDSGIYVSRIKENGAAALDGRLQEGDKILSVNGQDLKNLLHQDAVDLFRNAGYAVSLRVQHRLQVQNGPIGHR


Tests used:
Test in all cases: holdup assay
Parameters in all cases: key: below the threshold = too weak to quantify, mostly under pKd 3.1 to 4
Conditions in all cases: plain residues with an end cap or a label only (N-terminal biotin on a linker: ado-ado)
AHNAK1, Q09666 = biological target: AHNAK1, Q09666
AHNAK1, Q09666, sequence (Q09666 4-100): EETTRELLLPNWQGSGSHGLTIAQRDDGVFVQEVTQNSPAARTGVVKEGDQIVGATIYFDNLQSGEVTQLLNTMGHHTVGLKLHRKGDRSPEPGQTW

ARHGEF12, Q9NZN5-2 = biological target: ARHGEF12, Q9NZN5-2
ARHGEF12, Q9NZN5-2, sequence (Q9NZN5 other isoform, or with tags, fused parts or gaps): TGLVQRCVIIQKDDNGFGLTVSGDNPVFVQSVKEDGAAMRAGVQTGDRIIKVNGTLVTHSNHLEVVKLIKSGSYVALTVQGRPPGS

CARD11, Q9BXL7 = biological target: T1, CARD11, Q9BXL7
DLG2_3, Q15700 = biological target: DLG2_3, Q15700
HTRA3, P83110 = biological target: T2, HTRA3, P83110
HTRA4, P83105 = biological target: T3, HTRA4, P83105
IL16_1, Q14005 = biological target: IL16_1, Q14005
IL16_1, Q14005, sequence (Q14005 210-306): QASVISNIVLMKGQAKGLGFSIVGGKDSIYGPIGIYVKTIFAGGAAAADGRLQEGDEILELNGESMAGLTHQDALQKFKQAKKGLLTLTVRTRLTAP

Inadl_3, Q8NI35 = biological target: Inadl_3, Q8NI35
Inadl_3, Q8NI35, sequence (Q8NI35 359-469): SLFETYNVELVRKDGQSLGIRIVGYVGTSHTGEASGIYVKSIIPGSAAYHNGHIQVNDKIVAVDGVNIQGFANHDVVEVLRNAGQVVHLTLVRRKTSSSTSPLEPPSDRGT

Inadl_4, Q8NI35 = biological target: Inadl_4, Q8NI35
Inadl_4, Q8NI35, sequence (Q8NI35 547-651): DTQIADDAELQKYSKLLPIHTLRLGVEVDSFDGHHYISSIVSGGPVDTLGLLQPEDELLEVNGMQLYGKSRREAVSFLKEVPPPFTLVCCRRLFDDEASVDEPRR

Inadl_9, Q8NI35 = biological target: Inadl_9, Q8NI35
Inadl_9, Q8NI35, sequence (Q8NI35 1530-1615): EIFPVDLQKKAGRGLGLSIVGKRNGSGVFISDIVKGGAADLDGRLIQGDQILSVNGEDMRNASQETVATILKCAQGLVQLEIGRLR

LNX2_3, Q8N448 = biological target: T4, LNX2_3, Q8N448
MAGI2_5, Q86UL8 = biological target: MAGI2_5, Q86UL8
MAGI2_5, Q86UL8, sequence (Q86UL8 915-1017): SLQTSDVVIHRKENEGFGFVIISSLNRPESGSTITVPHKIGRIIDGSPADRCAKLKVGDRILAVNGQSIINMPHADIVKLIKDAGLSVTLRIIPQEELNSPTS

MAST1, Q9Y2H9 = biological target: MAST1, Q9Y2H9
MAST1, Q9Y2H9, sequence (Q9Y2H9 962-1065): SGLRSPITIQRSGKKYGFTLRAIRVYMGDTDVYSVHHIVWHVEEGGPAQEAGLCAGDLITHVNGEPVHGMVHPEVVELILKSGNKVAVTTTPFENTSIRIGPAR

MPP7, Q5T2T1 = biological target: T5, MPP7, Q5T2T1
NHERF2_2, Q15599 = biological target: NHERF2_2, Q15599
NHERF2_2, Q15599, sequence (Q15599 142-238): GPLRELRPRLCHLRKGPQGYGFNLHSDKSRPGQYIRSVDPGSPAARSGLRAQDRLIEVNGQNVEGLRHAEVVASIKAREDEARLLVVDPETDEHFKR

NHERF4_1, Q86UT5-2 = biological target: NHERF4_1, Q86UT5-2
NHERF4_1, Q86UT5-2, sequence (Q86UT5 other isoform, or with tags, fused parts or gaps): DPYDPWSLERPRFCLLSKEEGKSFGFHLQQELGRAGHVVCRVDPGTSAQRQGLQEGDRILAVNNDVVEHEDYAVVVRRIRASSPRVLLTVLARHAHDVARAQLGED

NOS1, P29475 = biological target: NOS1, P29475
NOS1, P29475, sequence (P29475 9-101): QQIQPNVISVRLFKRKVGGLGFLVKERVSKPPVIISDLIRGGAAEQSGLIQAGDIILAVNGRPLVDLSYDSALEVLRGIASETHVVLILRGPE

PARD3B_1, Q8TEW8 = biological target: T6, PARD3B_1, Q8TEW8
PARD3_3, Q8TEW0 = biological target: PARD3_3, Q8TEW0
PARD3_3, Q8TEW0, sequence (Q8TEW0 582-685): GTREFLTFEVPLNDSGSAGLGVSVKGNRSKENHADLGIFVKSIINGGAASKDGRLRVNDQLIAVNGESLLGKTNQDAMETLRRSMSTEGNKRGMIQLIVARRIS

PCLO, Q9Y6V0 = biological target: T7, PCLO, Q9Y6V0
SCRIB_2, Q14160 = biological target: SCRIB_2, Q14160
SCRIB_2, Q14160, sequence (Q14160 857-960): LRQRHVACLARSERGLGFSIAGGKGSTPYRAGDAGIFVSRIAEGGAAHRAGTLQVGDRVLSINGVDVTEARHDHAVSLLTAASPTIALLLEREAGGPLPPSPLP

SNTA1, Q13424 = biological target: T8, SNTA1, Q13424
SNTG1, Q9NSN8 = biological target: T9, SNTG1, Q9NSN8
SNTG2, Q9NY99 = biological target: T10, SNTG2, Q9NY99
SYNJ2BP, P57105 = biological target: T11, SYNJ2BP, P57105
TJP1_2, Q07157 = biological target: TJP1_2, Q07157
TJP1_2, Q07157, sequence (Q07157 181-274): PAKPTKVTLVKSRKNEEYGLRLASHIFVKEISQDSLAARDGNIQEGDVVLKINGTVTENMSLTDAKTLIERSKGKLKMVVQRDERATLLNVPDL

Row | Binder | pKd (AHNAK1, Q09666) | pKd (ARHGEF12, Q9NZN5-2) | pKd (CARD11, Q9BXL7) | pKd (DLG2_3, Q15700) | pKd (HTRA3, P83110) | pKd (HTRA4, P83105) | pKd (IL16_1, Q14005) | pKd (Inadl_3, Q8NI35) | pKd (Inadl_4, Q8NI35) | pKd (Inadl_9, Q8NI35) | pKd (LNX2_3, Q8N448) | pKd (MAGI2_5, Q86UL8) | pKd (MAST1, Q9Y2H9) | pKd (MPP7, Q5T2T1) | pKd (NHERF2_2, Q15599) | pKd (NHERF4_1, Q86UT5-2) | pKd (NOS1, P29475) | pKd (PARD3B_1, Q8TEW8) | pKd (PARD3_3, Q8TEW0) | pKd (PCLO, Q9Y6V0) | further results
1 | DYSNLRETDI [ADRA1D, P25100] | below the threshold | 4.03 | below the threshold | below the threshold | below the threshold | 3.75 | 3.59 | 3.84 | below the threshold | below the threshold | below the threshold | below the threshold | 4.34 | below the threshold | below the threshold | below the threshold | below the threshold | below the threshold | 3.51 | below the threshold | pKd (SCRIB_2, Q14160): 4.73; pKd (SNTA1, Q13424): 5.71; pKd (SNTG1, Q9NSN8): 5.55; pKd (SNTG2, Q9NY99): 5.05; pKd (SYNJ2BP, P57105): 4.43; pKd (TJP1_2, Q07157): below the threshold
2 | SAGADSETHC [SLCO1B1, Q9Y6L6] | below the threshold | below the threshold | below the threshold | below the threshold | below the threshold | below the threshold | below the threshold | below the threshold | below the threshold | below the threshold | below the threshold | below the threshold | 3.9 | below the threshold | 3.72 | below the threshold | below the threshold | below the threshold | below the threshold | below the threshold | pKd (SCRIB_2, Q14160): below the threshold; pKd (SNTA1, Q13424): below the threshold; pKd (SNTG1, Q9NSN8): 3.66; pKd (SNTG2, Q9NY99): 3.61; pKd (SYNJ2BP, P57105): below the threshold; pKd (TJP1_2, Q07157): below the threshold
